# Results taken from paper PMC12412469 (2025).
# T1: Biotinylated Recombinant Human IL-7R alpha/CD127 Fc Chimera Avi-tag (human, UniProt P16871 21-239, biotin (biotinylated Avi-tag))
# T1 chain: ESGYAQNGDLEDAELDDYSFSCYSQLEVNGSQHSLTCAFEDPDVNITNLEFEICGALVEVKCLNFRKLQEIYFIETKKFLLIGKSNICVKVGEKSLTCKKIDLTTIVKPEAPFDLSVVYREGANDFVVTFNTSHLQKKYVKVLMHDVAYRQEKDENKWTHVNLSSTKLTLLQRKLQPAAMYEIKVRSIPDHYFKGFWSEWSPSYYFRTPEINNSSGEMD
# T2: Recombinant Human VEGF165 (human, UniProt P15692-4 1-191)
# T2 chain: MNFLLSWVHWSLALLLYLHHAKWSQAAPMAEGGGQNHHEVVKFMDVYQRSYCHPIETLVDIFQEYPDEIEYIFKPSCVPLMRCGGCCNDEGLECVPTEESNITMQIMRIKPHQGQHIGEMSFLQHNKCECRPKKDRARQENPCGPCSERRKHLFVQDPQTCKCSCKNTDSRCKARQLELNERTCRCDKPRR
# Key:
# [1] = molecular target: T1, Biotinylated Recombinant Human IL-7R …; assay: SPR
# [2] = molecular target: T2, Recombinant Human VEGF165
# [3] = molecular target: T2, Recombinant Human VEGF165; assay: SPR
# [4] = molecular target: T2, Recombinant Human VEGF165; assay: SPR; rhVEGF165 amine-coupled to a CM5 chip; designs injected (multi-cycle kinetics, 60 s injection, 60 s dissociation); PBS with 0.05% Tween-20; 25 °C; 10 µL/min; 1:1 binding assumed, linearization method
koff [1],koff [3],Binder,further results
0.0821 s⁻¹,,6YUD scaffold (unmutated template) (other) MKFAVIDRKNFTLIHFEIEKPIKPEILKEIEIPSVDTRKGVVISGRGPIWLHCFLAHKYAHTPFVAVYDPRLGAVVVQSHSELREGDVIDVVVEEILKGGVRHV,
,0.0309 s⁻¹,Sam0.7 (designed binder) LPTAEEVQKLMARYIELMDVGDIEAIVQMYADDATVEAPFGAPPIHGRERIAYFYRRMLGGGIARATLTGPVRASHNGTGAMPFRVEYVFNGQPFAMDVRVEMRFDEHGRIQTMQAYWDWVNLSVREP,"proliferation of the VEGF-sensitive leukemia cell line U937 (CellTiter-Blue, 72 h), 1 to 100 µg/mL of the binder, percent of untreated control [2]: 50%; Kd [4]: 190 nM"
,0.0006 s⁻¹,Sima3.2 (designed binder) STNISPKQGLDKAKYFSGKWYLTHVLIKDPKIVSQFCASFTPRESDGTVKIAVYLYLAIKKTSDYAIGEGKLESSGLQYTATSKVVDKKKAVLKELDERHSYTVTVLEADDSSALTHITVREGSKDYGDYYLVLTHQKDAEPSAKVKSAVTQAGLQLSQFVGTKDLGCQYDDQFTSL,other [2]: 50%; Kd [3]: 14 nM
0.375 s⁻¹,,5NLC scaffold (unmutated template) (other) MAQIAERLASLRSQLPPSVQLIAVSKNHPAAAIREAYAAGQRHFGENRVQEAIAKQAELTDLPDLTWHLLGKLQSNKARKAVEHFDWIHSVDSWALAERLDRIAGELGRSPKLCLQVKLLPDPNKAGWDPADLRAELPQLSQLQQVQIRGLMVIAPLGLTAAETQALFAQARTFAAELQQQAPQLRLTELSMGMSSDWPLAVAEGATWIRVGTQLFGPRSL,
